Experimental data from the RNAGym collection of RNA variant scans (doi:10.7554/elife.90254).

B1: OR4K15 (parent)
chain: GUUAACGGUCAUAGGCCAUGGAAACUAGGAGCACCAUUUCGCUGCCAGUGAAGAAAUGAACAAAGAAAAUCUGGGCCAGGCAGGCAUCAAAAGAAAUAGUCUUGCGCUCAACCAGAAAGUCUGUAAUCAUUUUAAGGGUA

Variants of: B1
Assay: self-cleavage, relative activity (ratio to wild type); higher = more cleavage; in vitro, sequencing; the parent is a self-cleaving ribozyme

With A66G A89U as the variant, how does the self-cleavage read?
Its self-cleavage is 1.97.

Which self-cleavage does the source give for A62G U108A here?
The self-cleavage was 0.01.

With A63G U97A as the variant, how does the self-cleavage read?
The self-cleavage was 1.94.

For A66G A92G, which self-cleavage is on record?
Its self-cleavage is 0.74.

For A62G U120C, which self-cleavage is on record?
Its self-cleavage is 1.07.

Which self-cleavage does the source give for A62G U120G here?
Its self-cleavage is 0.84.

Which self-cleavage does the source give for A62G G75C here?
Its self-cleavage is 0.18.

For A62G G75U, which self-cleavage is on record?
The self-cleavage was 0.15.

For A64G U70A, which self-cleavage is on record?
The self-cleavage was 0.97.

For A64C U70C, which self-cleavage is on record?
The self-cleavage was 1.18.

Which self-cleavage does the source give for A62C A91G here?
The self-cleavage was 1.31.

For A63G U103A, which self-cleavage is on record?
Its self-cleavage is 0.88.

For A63G U103C, which self-cleavage is on record?
Its self-cleavage is 1.38.

For A64U A111G, which self-cleavage is on record?
Its self-cleavage is 0.04.

Which self-cleavage does the source give for A63G U124C here?
Its self-cleavage is 1.17.

For A62U A118U, which self-cleavage is on record?
Its self-cleavage is 0.82.

Which self-cleavage does the source give for A64G G136U here?
Its self-cleavage is 2.02.

For A64U A95G, which self-cleavage is on record?
The self-cleavage was 1.95.

For A63G A114G, which self-cleavage is on record?
Its self-cleavage is 0.86.

With A64G U108C as the variant, how does the self-cleavage read?
The self-cleavage was 0.01.

Which self-cleavage does the source give for A62G U132G here?
The self-cleavage was 0.5.

For A62G U132C, which self-cleavage is on record?
Its self-cleavage is 1.59.

With A64U A82G as the variant, how does the self-cleavage read?
The self-cleavage was 0.71.

Which self-cleavage does the source give for A63U A96U here?
The self-cleavage was 2.14.

For A64U A114G, which self-cleavage is on record?
Its self-cleavage is 0.46.

For A64U A114U, which self-cleavage is on record?
Its self-cleavage is 0.02.

For A64G A92G, which self-cleavage is on record?
Its self-cleavage is 1.48.

For A64G A69U, which self-cleavage is on record?
The self-cleavage was 1.58.

With A64G A69G as the variant, how does the self-cleavage read?
Its self-cleavage is 1.36.

For A63U G99U, which self-cleavage is on record?
The self-cleavage was 1.03.

Which self-cleavage does the source give for A64C A69U here?
The self-cleavage was 2.61.

With A62C A78C as the variant, how does the self-cleavage read?
The self-cleavage was 0.31.

Which self-cleavage does the source give for A62U A125G here?
Its self-cleavage is 0.71.

Which self-cleavage does the source give for A62U A117G here?
Its self-cleavage is 1.64.

Which self-cleavage does the source give for G65A A118G here?
Its self-cleavage is 1.57.

Which self-cleavage does the source give for A63G C128U here?
Its self-cleavage is 1.95.

Which self-cleavage does the source give for A63C A90G here?
Its self-cleavage is 1.79.

With A64U A117U as the variant, how does the self-cleavage read?
The self-cleavage was 1.07.

For A62C U72C, which self-cleavage is on record?
Its self-cleavage is 0.26.

For A63G U122C, which self-cleavage is on record?
Its self-cleavage is 1.16.

Which self-cleavage does the source give for A63G U122A here?
Its self-cleavage is 1.47.

With A63G G83A as the variant, how does the self-cleavage read?
Its self-cleavage is 1.84.

With G65A U132G as the variant, how does the self-cleavage read?
Its self-cleavage is 0.82.

With G65A U132C as the variant, how does the self-cleavage read?
The self-cleavage was 0.58.

For A66C U132C, which self-cleavage is on record?
Its self-cleavage is 1.6.

With A62G A95U as the variant, how does the self-cleavage read?
The self-cleavage was 2.

Which self-cleavage does the source give for A66G A82U here?
The self-cleavage was 0.29.

With A62G C81U as the variant, how does the self-cleavage read?
The self-cleavage was 0.26.

With A62G A78C as the variant, how does the self-cleavage read?
The self-cleavage was 0.37.

Which self-cleavage does the source give for A62G A78U here?
The self-cleavage was 0.19.

With A63G A118G as the variant, how does the self-cleavage read?
Its self-cleavage is 0.83.

With A63G A118U as the variant, how does the self-cleavage read?
Its self-cleavage is 0.84.

For C61U U120A, which self-cleavage is on record?
The self-cleavage was 2.02.

For A64G U87C, which self-cleavage is on record?
Its self-cleavage is 0.87.

For A62G U97C, which self-cleavage is on record?
The self-cleavage was 1.34.

Which self-cleavage does the source give for A64U A78G here?
The self-cleavage was 0.47.

For A66G A78G, which self-cleavage is on record?
The self-cleavage was 0.31.

With A63G A129U as the variant, how does the self-cleavage read?
Its self-cleavage is 0.61.

With A63G A129G as the variant, how does the self-cleavage read?
The self-cleavage was 0.9.

With A62G A68U as the variant, how does the self-cleavage read?
The self-cleavage was 1.33.

For A64G U100A, which self-cleavage is on record?
The self-cleavage was 0.51.

Which self-cleavage does the source give for A64G U100C here?
The self-cleavage was 1.22.

For A66C U127C, which self-cleavage is on record?
Its self-cleavage is 0.14.

With A62U U132A as the variant, how does the self-cleavage read?
The self-cleavage was 2.19.

Which self-cleavage does the source give for A62U A68G here?
Its self-cleavage is 1.4.

For G65A U108G, which self-cleavage is on record?
The self-cleavage was 0.01.

For A62U A94G, which self-cleavage is on record?
The self-cleavage was 1.69.

With A63C C81U as the variant, how does the self-cleavage read?
Its self-cleavage is 0.41.

With A62G A91G as the variant, how does the self-cleavage read?
Its self-cleavage is 1.12.

For A64U A86G, which self-cleavage is on record?
The self-cleavage was 1.85.

Which self-cleavage does the source give for A62G U122G here?
The self-cleavage was 2.99.

With A62G U122C as the variant, how does the self-cleavage read?
The self-cleavage was 1.27.

Which self-cleavage does the source give for A62G C77U here?
The self-cleavage was 2.24.

With G65A A116G as the variant, how does the self-cleavage read?
The self-cleavage was 0.45.

Which self-cleavage does the source give for A62G U127C here?
The self-cleavage was 0.38.

For A63U U70C, which self-cleavage is on record?
The self-cleavage was 1.68.

For A62U C85U, which self-cleavage is on record?
The self-cleavage was 1.31.

For A64U U132C, which self-cleavage is on record?
Its self-cleavage is 1.49.

For A63G U131G, which self-cleavage is on record?
Its self-cleavage is 1.99.

With A63G A82U as the variant, how does the self-cleavage read?
The self-cleavage was 0.24.

With A63G A82G as the variant, how does the self-cleavage read?
Its self-cleavage is 0.74.

Which self-cleavage does the source give for A63G G84A here?
Its self-cleavage is 1.86.

With A62G C109U as the variant, how does the self-cleavage read?
Its self-cleavage is 0.53.

For A62G G138A, which self-cleavage is on record?
The self-cleavage was 1.04.
